Source: PMC5667550 (SLAS discovery : advancing life sciences R & D, 2017)
Ends that are not written are not given here. * marks the point of attachment. Biotin = O=C1N[C@H]2[C@H](CS[C@H]2CCCCC(=O)*)N1

Target: Klebsiella pneumonia PriA protein fused to an N-terminal 6xHis purification tag (Klebsiella pneumonia, UniProt A6TGC5 1-731)
Test: AlphaScreen or HTRF

Sequence of Klebsiella pneumonia PriA protein fused to an N-terminal 6xHis purification tag (A6TGC5 whole entry, the tested form may be a part): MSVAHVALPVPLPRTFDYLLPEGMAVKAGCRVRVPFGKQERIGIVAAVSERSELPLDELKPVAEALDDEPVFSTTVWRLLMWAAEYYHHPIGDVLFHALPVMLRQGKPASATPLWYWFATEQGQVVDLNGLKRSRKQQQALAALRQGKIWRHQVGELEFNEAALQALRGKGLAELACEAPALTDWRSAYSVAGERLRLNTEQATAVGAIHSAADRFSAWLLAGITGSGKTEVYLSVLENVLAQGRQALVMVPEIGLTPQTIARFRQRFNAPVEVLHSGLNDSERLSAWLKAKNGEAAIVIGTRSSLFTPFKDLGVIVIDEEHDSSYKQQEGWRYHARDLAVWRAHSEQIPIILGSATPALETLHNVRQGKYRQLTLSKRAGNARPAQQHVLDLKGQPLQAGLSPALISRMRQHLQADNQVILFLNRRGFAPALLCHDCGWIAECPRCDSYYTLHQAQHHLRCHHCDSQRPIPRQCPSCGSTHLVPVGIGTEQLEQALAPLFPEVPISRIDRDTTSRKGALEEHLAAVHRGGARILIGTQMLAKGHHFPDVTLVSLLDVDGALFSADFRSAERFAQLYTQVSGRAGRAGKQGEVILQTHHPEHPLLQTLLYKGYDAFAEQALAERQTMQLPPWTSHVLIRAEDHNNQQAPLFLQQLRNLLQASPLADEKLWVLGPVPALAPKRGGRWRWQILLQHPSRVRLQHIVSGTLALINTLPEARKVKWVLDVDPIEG

Biotin-WMDFDDDIPF [N-terminally biotinylated SSBct]: binds.
